# B1: EH domain-containing protein 3 (Homo sapiens), Q9NZN3 (parent)
# chain: MFSWLGTDDRRRKDPEVFQTVSEGLKKLYKSKLLPLEEHYRFHEFHSPALEDADFDNKPMVLLVGQYSTGKTTFIRYLLEQDFPGMRIGPEPTTDSFIAVMQGDMEGIIPGNALVVDPKKPFRKLNAFGNAFLNRFVCAQLPNPVLESISVIDTPGILSGEKQRISRGYDFAAVLEWFAERVDRIILLFDAHKLDISDEFSEVIKALKNHEDKMRVVLNKADQIETQQLMRVYGALMWSLGKIVNTPEVIRVYIGSFWSHPLLIPDNRKLFEAEEQDLFRDIQSLPRNAALRKLNDLIKRARLAKVHAYIISSLKKEMPSVFGKDNKKKELVNNLAEIYGRIEREHQISPGDFPNLKRMQDQLQAQDFSKFQPLKSKLLEVVDDMLAHDIAQLMVLVRQEESQRPIQMVKGGAFEGTLHGPFGHGYGEGAGEGIDDAEWVVARDKPMYDEIFYTLSPVDGKITGANAKKEMVRSKLPNSVLGKIWKLADIDKDGMLDDDEFALANHLIKVKLEGHELPNELPAHLLPPSKRKVAE
# partner: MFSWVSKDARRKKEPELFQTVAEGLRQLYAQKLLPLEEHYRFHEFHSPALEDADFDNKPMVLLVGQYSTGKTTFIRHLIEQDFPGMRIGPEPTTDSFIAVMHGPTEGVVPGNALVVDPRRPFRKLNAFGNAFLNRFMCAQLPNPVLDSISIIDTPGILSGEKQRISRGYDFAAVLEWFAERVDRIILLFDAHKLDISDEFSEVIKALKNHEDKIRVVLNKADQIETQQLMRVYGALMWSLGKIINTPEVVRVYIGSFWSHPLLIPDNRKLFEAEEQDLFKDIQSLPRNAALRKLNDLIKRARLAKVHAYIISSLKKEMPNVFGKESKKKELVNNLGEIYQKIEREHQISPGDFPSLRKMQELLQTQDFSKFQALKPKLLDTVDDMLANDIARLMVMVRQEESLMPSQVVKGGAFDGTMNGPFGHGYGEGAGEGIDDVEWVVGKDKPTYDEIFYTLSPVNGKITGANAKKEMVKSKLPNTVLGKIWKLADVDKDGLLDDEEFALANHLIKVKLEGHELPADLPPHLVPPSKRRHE
# B2: EH domain-containing protein 3 (Mus musculus), Q9QXY6 (parent)
# chain: MFSWLGNDDRRKKDPEVFQTVSDGLKKLYKTKLLPLEEYYRFHEFHSPALEDADFDNKPMVLLVGQYSTGKTTFIRYLLEQDFPGMRIGPEPTTDSFIAVMQGDVEGIIPGNALVVDPKKPFRKLNAFGNAFLNRFVCAQLPNAVLESISVIDTPGILSGEKQRISRGYDFAAVLEWFAERVDRIILLFDAHKLDISDEFSEVIKALKNHEDKMRVVLNKADQIETQQLMRVYGALMWSLGKIVNTPEVIRVYIGSFWSHPLLIPDNRKLFEAEEQDLFRDIQSLPRNAALRKLNDLIKRARLAKVHAYIISSLKKEMPSVFGKDTKKKELVNNLAEIYGRIEREHQISPGDFPNLKRMQDQLQAQDFSKFQPLKSKLLEVVDDMLAHDIAQLMVLVRQEETQRPVQMVKGGAFEGTLQGPFGHGYGEGAGEGIDDAEWVVARDKPMYDEIFYTLSPVDGKITGANAKKEMVRSKLPNSVLGKIWKLADIDKDGMLDDEEFALANHLIKVKLEGHELPSELPAHLLPPSKRKVSE
# partner: B1 chain
# Variants of: B1
# Conditions: with ehd1_human EHD1, Q9H4M9
row,effect of a mutation on the interaction,Variant
1,with no effect,MFSWLGTDDRRRKDPEVFQTVSEGLKKLYKSKLLPLEEHYRFHEFHSPALEDADFDNKPMVLLVGQYSTGKTTFIRYLLEQDFPGMRIGPEPTTDSFIAVMQGDMEGIIPGNALVVDPKKPFRKLNAFGNAFLNRFVCAQLPNPVLESISVIDTPGILSGEKQRISRGYDFAAVLEWFAERVDRIILLFDAHKLDISDEFSEVIKALKNHEDKMRVVLNKADQIETQQLMRVYGALMWSLGKIVNTPEVIRVYIGSFWSHPLLIPDNRKLFEAEEQDLFRDIQSLPRNAALRKLNDLIKRARLAKVHAYIISSLRKEMPSVFGKDNKKKELVNNLAEIYGRIEREHQISPGDFPNLKRMQDQLQAQDFSKFQPLKSKLLEVVDDMLAHDIAQLMVLVRQEESQRPIQMVKGGAFEGTLHGPFGHGYGEGAGEGIDDAEWVVARDKPMYDEIFYTLSPVDGKITGANAKKEMVRSKLPNSVLGKIWKLADIDKDGMLDDDEFALANHLIKVKLEGHELPNELPAHLLPPSKRKVAE [K315R]
2,with no effect,MFSWLGTDDRRRKDPEVFQTVSEGLKKLYKSKLLPLEEHYRFHEFHSPALEDADFDNKPMVLLVGQYSTGKTTFIRYLLEQDFPGMRIGPEPTTDSFIAVMQGDMEGIIPGNALVVDPKKPFRKLNAFGNAFLNRFVCAQLPNPVLESISVIDTPGILSGEKQRISRGYDFAAVLEWFAERVDRIILLFDAHKLDISDEFSEVIKALKNHEDKMRVVLNKADQIETQQLMRVYGALMWSLGKIVNTPEVIRVYIGSFWSHPLLIPDNRKLFEAEEQDLFRDIQSLPRNAALRKLNDLIKRARLAKVHAYIISSLRKEMPSVFGKDNKKKELVNNLAEIYGRIEREHQISPGDFPNLKRMQDQLQAQDFSKFQPLKSKLLEVVDDMLAHDIAQLMVLVRQEESQRPIQMVKGGAFEGTLHGPFGHGYGEGAGEGIDDAEWVVARDKPMYDEIFYTLSPVDGKITGANAKKEMVRSKLPNSVLGKIWKLADIDKDGMLDDDEFALANHLIKVRLEGHELPNELPAHLLPPSKRKVAE [K315R;K511R]

# Variants of: B1
# Conditions: with ehd1_human EHD1, Q9H4M9
# Remark: another data set of the same source
row,effect of a mutation on the interaction,Variant
1,disrupting interaction,MFSWLGTDDRRRKDPEVFQTVSEGLKKLYKSKLLPLEEHYRFHEFHSPALEDADFDNKPMVLLVGQYSTGKTTFIRYLLEQDFPGMRIGPEPTTDSFIAVMQGDMEGIIPGNALVVDPKKPFRKLNAFGNAFLNRFVCAQLPNPVLESISVIDTPGILSGEKQRISRGYDFAAVLEWFAERVDRIILLFDAHKLDISDEFSEVIKALKNHEDKMRVVLNKADQIETQQLMRVYGALMWSLGKIVNTPEVIRVYIGSFWSHPLLIPDNRKLFEAEEQDLFRDIQSLPRNAALRKLNDLIKRARLAKVHAYIISSLRKEMPSVFGKDNKKKELVNNLAEIYGRIEREHQISPGDFPNLKRMQDQLQAQDFSKFQPLKSKLLEVVDDMLAHDIAQLMVLVRQEESQRPIQMVKGGAFEGTLHGPFGHGYGEGAGEGIDDAEWVVARDKPMYDEIFYTLSPVDGKITGANAKKEMVRSKLPNSVLGKIWKLADIDKDGMLDDDEFALANHLIKVRLEGHELPNELPAHLLPPSKRKVAE [K315R;K511R]

# Variants of: B2
# Conditions: with ehd3_human EHD3, Q9NZN3
row,effect of a mutation on the interaction,Variant
1,with no effect,MFSWLGNDDRRKKDPEVFQTVSDGLKKLYKTKLLPLEEYYRFHEFHSPALEDADFDNKPMVLLVGQYSTGKTTFIRYLLEQDFPGMRIGPEPTTDSFIAVMQGDVEGIIPGNALVVDPKKPFRKLNAFGNAFLNRFVCAQLPNAVLESISVIDTPGILSGEKQRISRGYDFAAVLEWFAERVDRIILLFDAHKLDISDEFSEVIKALKNHEDKMRVVLNKADQIETQQLMRVYGALMWSLGKIVNTPEVIRVYIGSFWSHPLLIPDNRKLFEAEEQDLFRDIQSLPRNAALRKLNDLIKRARLAKVHAYIISSLRKEMPSVFGKDTKKKELVNNLAEIYGRIEREHQISPGDFPNLKRMQDQLQAQDFSKFQPLKSKLLEVVDDMLAHDIAQLMVLVRQEETQRPVQMVKGGAFEGTLQGPFGHGYGEGAGEGIDDAEWVVARDKPMYDEIFYTLSPVDGKITGANAKKEMVRSKLPNSVLGKIWKLADIDKDGMLDDEEFALANHLIKVRLEGHELPSELPAHLLPPSKRKVSE [K315R;K511R]

# Variants of: B2
# Conditions: with ehd3_human EHD3, Q9NZN3
# Remark: another data set of the same source
row,effect of a mutation on the interaction,Variant
1,decreasing interaction,MFSWLGNDDRRKKDPEVFQTVSDGLKKLYKTKLLPLEEYYRFHEFHSPALEDADFDNKPMVLLVGQYSTGKTTFIRYLLEQDFPGMRIGPEPTTDSFIAVMQGDVEGIIPGNALVVDPKKPFRKLNAFGNAFLNRFVCAQLPNAVLESISVIDTPGILSGEKQRISRGYDFAAVLEWFAERVDRIILLFDAHKLDISDEFSEVIKALKNHEDKMRVVLNKADQIETQQLMRVYGALMWSLGKIVNTPEVIRVYIGSFWSHPLLIPDNRKLFEAEEQDLFRDIQSLPRNAALRKLNDLIKRARLAKVHAYIISSLRKEMPSVFGKDTKKKELVNNLAEIYGRIEREHQISPGDFPNLKRMQDQLQAQDFSKFQPLKSKLLEVVDDMLAHDIAQLMVLVRQEETQRPVQMVKGGAFEGTLQGPFGHGYGEGAGEGIDDAEWVVARDKPMYDEIFYTLSPVDGKITGANAKKEMVRSKLPNSVLGKIWKLADIDKDGMLDDEEFALANHLIKVRLEGHELPSELPAHLLPPSKRKVSE [K315R;K511R]
2,decreasing interaction,MFSWLGNDDRRKKDPEVFQTVSDGLKKLYKTKLLPLEEYYRFHEFHSPALEDADFDNKPMVLLVGQYSTGKTTFIRYLLEQDFPGMRIGPEPTTDSFIAVMQGDVEGIIPGNALVVDPKKPFRKLNAFGNAFLNRFVCAQLPNAVLESISVIDTPGILSGEKQRISRGYDFAAVLEWFAERVDRIILLFDAHKLDISDEFSEVIKALKNHEDKMRVVLNKADQIETQQLMRVYGALMWSLGKIVNTPEVIRVYIGSFWSHPLLIPDNRKLFEAEEQDLFRDIQSLPRNAALRKLNDLIKRARLAKVHAYIISSLKKEMPSVFGKDTKKKELVNNLAEIYGRIEREHQISPGDFPNLKRMQDQLQAQDFSKFQPLKSKLLEVVDDMLAHDIAQLMVLVRQEETQRPVQMVKGGAFEGTLQGPFGHGYGEGAGEGIDDAEWVVARDKPMYDEIFYTLSPVDGKITGANAKKEMVRSKLPNSVLGKIWKLADIDKDGMLDDEEFALANHLIKVRLEGHELPSELPAHLLPPSKRKVSE [K511R]

# Source: IntAct's records for PubMed 26226295
